The test system of experiment [1] is primary osteoblasts. Briefly: Dexamethasone induced cell death of primary osteoblasts, trypan blue uptake. The format is cell-based, murine. Conditions: 16 h dex. treatment (10^−6M). On the procedure:
Cell viability was monitored by trypan blue exclusion. Nonadherent cells were combined with adherent cells released from the culture dish using trypsin-EDTA, resuspended in medium containing serum and collected by centrifugation. 0.04% trypan blue was added and the 150 cells per condition are counted). DNA fragmentation was measured by the TUNEL (transferase biotin-dUTP nick endlabeling). […] 104, 1363-1374; and Bellido, T., O'Brien, C. A., Roberson, P. K., and Manolagas, S. C. (1998) J. Biol. Chem. 273, 21137-21144).
In addition to MLO-Y4 cells, it will also be possible to determine the effect of dexamethasone in the presence or absence of calbindin-D28k on apoptotic cell death and on caspase 3 activity (with the methodology outlined above) using primary osteoblastic cells from calbindin-D28k KO and WT mice. Murine osteoblasts will be isolated from pups 30-72 h old from our colony of WT (C57BL6) or calbindin-D28k KO mice (cite 22 of grant, cite 111 of grant) by controlled digestion with collagenase (cite 112 of grant). Briefly calvariae, trimmed of fibrous tissue and divided in 2 are transferred to 15 ml conical sterile tubes, washed with PBS (5 ml) 3× at 37° C. (10 min/wash) in an oscillating H2O bath. Calvariae are then subjected to a series of collagenase digestions (200 μg/Ml PBS collagenase CLS2 from Worthington) in an oscillating 37° C. […]

Experiment [2] has as its system lymphocytes. Particulars: stable expression of calbindin-D28k cDNA in lymphocytes (Dowd et al. 1992); cited from earlier work.
Experiment [3] has as its system MLO-Y4 osteocytic cells. Briefly: Dexamethasone induced cell death of MLO-Y4 cells transfected with calbindin-D28k expression vector (trypan blue, TUNEL, morphology). Format: cell-based, murine. Particulars: MLO-Y4 cells transfected with pREP4 or BSRα calbindin-D28k vector vs vector alone, 10^−6M dexamethasone, 6, 12 and 24 h. On the procedure: Murine osteocytic MLO-Y4 cells (provided by Dr. Lynda Bonewald, University of Texas Health Center at San Antonio, Tex.), and primary bone cells (isolated from neonatal murine calvaria) were cultured as indicated previously (Kato, Y., Windle, J. J., Koop, B. A., Mundy, G. R., and Bonewald, L. F. (1997) J. Bone Miner Res. 12, 2014-2023) (Bellido, T., Borba, V. Z. C., Roberson, P. K., and Manolagas, S. C. (1997) Endocrinology 138, 3666-3676). All culture media contained 100 units/ml penicillin and 100 μg/ml streptomycin. Cultures were kept in a humidified atmosphere of 5% CO2 in air at 37° C.
Transient transfections of MLO-Y4 cells were carried out in 12-well culture plates using SUPERFECT®. […] After 6, 12 and 24 h, apoptosis was induced by addition of 10^−6M dexamethasone and quantified as indicated below or cell lysates collected for the analysis of calbindin-D28k by Western blotting and radioimmunoassay (cite 65 of grant).
Cell viability was monitored by trypan blue exclusion. […] 0.04% trypan blue was added and the 150 cells per condition are counted). DNA fragmentation was measured by the TUNEL (transferase biotin-dUTP nick endlabeling). […]
Data were analyzed by one-way analysis of variance, and the Student-Keuls-Newman method was used to estimate the level of significance of differences between means. […]

The subject of experiment [4] is MC3T3-E1 cells. Particulars: MC3T3-E1 cells transfected with calbindin-D28K cDNA vs empty vector; cited from earlier work.

Entries after “also recorded” stand apart in the source; their conditions may differ.

`C[C@@H]1C[C@H]2[C@@H]3CCC4=CC(=O)C=C[C@]4(C)[C@@]3(F)[C@@H](O)C[C@]2(C)[C@@]1(O)C(=O)CO` [dex., dexamethasone, reference compound]: the “% of dead cells (trypan blue uptake)” value in experiment [1] (in the absence of calbindin-D28k) came to 23.2±3%.

B1: calbindin-D28k: calcium binding protein (polypeptide of SEQ ID NO:2), expressed in cells from pREP4 or BSRα calbindin-D28k expression vectors (protein, listed as Homo sapiens)
chain: MAESHLQSSLITASQFFEIWLHFDADGSGYLEGKELQNLIQELQQARKKAGLELSPEMKTFVDQYGQRDDGKIGIVELAHVLPTEENFLLLFRCQQLKSCEEFMKTWRKYDTDHSGFIETEELKNFLKDLLEKANKTVDDTKLAEYTDLMLKLFDSNNDGKLELTEMARLLPVQENFLLKFQGIKMCGKEFNKAFELYDQDGNGYIDENELDALLKDLCEKNKQDLDINNITTYKKNIMALSDGGKLYRTDLALILCAGDN
With B1, the “% of dead cells (trypan blue uptake)” value in experiment [1] (in the presence of calbindin-D28k, p<0.05) came to 12.9±2.4%. Further, the “protection against glucocorticoid induced lymphocyte cell death” value in experiment [2] was “protect against glucocorticoid induced lymphocyte cell death”. Moreover, the entries for the “protection against glucocorticoid (dexamethasone) induced cell death” value in experiment [3] and in experiment [3] (listed as calbindin-D28K) were “protection; also recorded: protected against glucocorticoid induced cell death” and “protection against dexamethasone induced cell death”, respectively. In addition, in experiment [4], the “pro-apoptotic effect of TNF (nuclear fragmentation)” value was “significantly attenuated”.

The values are drawn from patent US7790155B2, “Calbindin-D28K protection against glucocorticoid induced cell death” (University of Medicine and Dentistry of New Jersey, priority 2002, dated 2010).
